Data taken from patent publication US20210047402A1 (published 2021).

Biological target: T1, human CD22 (human, UniProt P20273 20-687)
Assay: BLI
How it was run: (§1)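 Affinity for human CD22 protein was measured by biolayer interferometry on an Octet QK-384 with anti-human IgG Fc capture biosensors, in 1×PBS, 0.1% BSA, 0.02% Tween-20, pH 7.2. Heavy chain-only antibodies were loaded at 5 μg/mL for 120 seconds, then dipped into a 7-point 1:2 dilution series of CD22 starting at 250 nM, with a buffer-only reference well. Kd was derived as koff/kon from a 1:1 binding model fit in Octet Data Analysis v9.0.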

T1 sequence (P20273 20-687): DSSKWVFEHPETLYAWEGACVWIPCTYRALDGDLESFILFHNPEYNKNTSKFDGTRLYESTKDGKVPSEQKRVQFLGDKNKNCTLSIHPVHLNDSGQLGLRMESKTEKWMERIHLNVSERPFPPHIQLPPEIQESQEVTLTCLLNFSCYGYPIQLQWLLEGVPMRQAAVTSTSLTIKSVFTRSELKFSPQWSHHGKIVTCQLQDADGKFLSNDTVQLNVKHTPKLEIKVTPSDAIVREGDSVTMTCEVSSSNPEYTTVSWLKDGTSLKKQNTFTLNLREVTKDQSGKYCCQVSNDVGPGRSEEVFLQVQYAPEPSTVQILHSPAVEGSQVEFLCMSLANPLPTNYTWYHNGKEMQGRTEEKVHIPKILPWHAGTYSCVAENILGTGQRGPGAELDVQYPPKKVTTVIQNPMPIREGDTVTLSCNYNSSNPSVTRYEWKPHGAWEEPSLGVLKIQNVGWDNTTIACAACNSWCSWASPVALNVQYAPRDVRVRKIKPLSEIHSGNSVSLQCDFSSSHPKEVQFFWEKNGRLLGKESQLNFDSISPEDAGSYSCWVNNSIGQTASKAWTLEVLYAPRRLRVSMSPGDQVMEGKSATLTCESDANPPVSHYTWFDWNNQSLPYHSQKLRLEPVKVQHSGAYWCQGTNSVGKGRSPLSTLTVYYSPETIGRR

Kd [nM] | Binder
7.41 | anti-CD22 heavy chain-only antibody Clone ID 335293 (antibody, V domains shown) VH: QLQLQESGPGLVKPSETLSLTCTVSGDSISSGDYYWGWIRQPPGKGLEWIGHIYYSGATYYNPSLKNRVTISVDTSRNQFSLKLSSVTAADTAVYYCTREDSSSWRSRGQGTLVTVSS
22.4 | anti-CD22 heavy chain-only antibody Clone ID 335182 (antibody, V domains shown) VH: QLQLQESGPGLVKPSETLSLTCTVSGDSISSGDYYWGWIRQPPGKGLEWIGNIYYSGATYYNPSLKNRVTISVDTSKNQFSLKLSSVTAADTAVYYCTRDDSSNWRSRGQGTLVTVSS

Biological target: T1, human CD22
Assay: BLI
Remark: another data set of the same source
How it was run: as §1

Binder | Kd [nM]
anti-CD22 heavy chain-only antibody Clone ID 335179 (antibody, V domains shown) VH: QLQLQESGPGLVKPSETLSLTCTVSGGSISSSSYYWGWFRHPPGKGLDWIGSIHYSGSTYYNPSLKSRVTISVDTSRNQFSLNLSSVTAADTAVYYCTRDDSSNWRSRGQGTLVTVSS | 148
anti-CD22 heavy chain-only antibody Clone ID 335242 (antibody, V domains shown) VH: QLQLQESGPGLVKPSETLSLTCTVSGGSISSSSYYWGWIRQPPGKGLEWIGHIYYSGATYYNPSLKNRVTISVDTSRNQFSLNLSSVTAADTAVYYCTREDSSNWRSRGQGTLVTVSS | 79.7
anti-CD22 heavy chain-only antibody Clone ID 335187 (antibody, V domains shown) VH: QLQLQESGPGLVKPSETLSLTCTVSGGSISSSSYYWGWIRQPPGKGLEWIGHIYYSGATYYNPSLKNRVTISVDTSKNQFSLKLSSVTAADTAVYYCTRDDSSNWRSRGQGTLVTVSS | 128
anti-CD22 heavy chain-only antibody Clone ID 335230 (antibody, V domains shown) VH: QLQLQESDPGLVKPSETLSLTCTVSGGSISSSSHYWGWIRQPPGKGLEWIGHIYYSGATYYNPSLKNRVTISVDTSRNQFSLNLSSVTAADTAVYYCTREDSSNWRSRGQGTLVTVSS | 75.2
anti-CD22 heavy chain-only antibody Clone ID 335208 (antibody, V domains shown) VH: QLQLQESGPGLVKPSETLSLTCTVSGGSISSSSYYWGWIRQPPGKGLEWIGSIYYSGATYYNPSLKNRVTISVDTSRNQFSLNLSSVTAADTAVYYCTREDSSNWRSRGQGTLVTVSS | 58.4
anti-CD22 heavy chain-only antibody Clone ID 335195 (antibody, V domains shown) VH: QLQLQESGPGLVKPSETLSLTCTVSGGSISSSSYYWGWIRQPPGKGLEWIGSIYYSGATYYNPSLKNRVTISVDTSRNQFSLNLSSVTAADTAMYYCTREDSSNWRSRGQGTLVTVSS | 150
anti-CD22 heavy chain-only antibody Clone ID 335210 (antibody, V domains shown) VH: QLQLQESGPGLVKPSETLSLTCTVSGGSISSGDYYWGWIRQPPGKGLEWIGHIYYSGATYYNPSLKNRVTISVDTSRNQFSLKLSSVTAADTAVYYCTREDSSNWRSRGQGTLVTVSS | 62.5
anti-CD22 heavy chain-only antibody Clone ID 335220 (antibody, V domains shown) VH: QLQLQESGPGLVKPSETLSLTCTVSGGSISSSSYYWGWIRQPPGKGLEWIGSIYYSGSTYYNPSLKNRVTISVDTSKNQFSLKLSSVTAADTAVYYCTREDSSNWRSRGQGTLVTVSS | 48.2
anti-CD22 heavy chain-only antibody Clone ID 335283 (antibody, V domains shown) VH: QLQLQESGPGLVKPSETLSLTCTVSGGSISSSSYYWGWIRQPPGKGLEWIGSIYYSGATYYNPSLKNRVTISVDTSKNQFSLKLSSVTAADTAVYYCTREDSSSWRSRGQGTLVTVSS | 36.9
anti-CD22 heavy chain-only antibody Clone ID 335188 (antibody, V domains shown) VH: QLQLQESGPGLVKPSETLSLTCTVSGGSISSSSYYWGWIRQPPGKGLEWIGHIYYSGVTYYNPSLKNRVTISVDTSKNQFSLKLSSVTAADTAVYYCTRDDSSNWRSRGQGTLVTVSS | 53
anti-CD22 heavy chain-only antibody Clone ID 335285 (antibody, V domains shown) VH: QLQLQESGPGLVKPSETLSLTCTVSGGSISSSSYYWGWIRQPPGKGLEWIGSIYYSGVTYYNPSLKNRVTISVDTSKNQFSLKLSSVTAADTAVYYCTREDSSSWRSRGQGTLVTVSS | 114
anti-CD22 heavy chain-only antibody Clone ID 335273 (antibody, V domains shown) VH: QLQLQESGPGLVKPSETLSLTCTVSGGSISSSSYYWGWIRQPPGKGLEWIGSIYYSGSTYYNPSLKSRVTISVDTSKNQFSLKLSSVTAADTAVYYCTREDSSSWRSRGQGTLVTVSS | 42.2
anti-CD22 heavy chain-only antibody Clone ID 335266 (antibody, V domains shown) VH: QLQLQESGPGLVRPSETLSLTCTVSGGSISSSSYYWGWIRQPPGKGLEWIGSIYYSGSTYYNPSLKSRVTISVDTSKNQFSLKLSSVTAADTAVYYCTREDSSSWRSRGQGTLVTVSS | 38.5
anti-CD22 heavy chain-only antibody Clone ID 335219 (antibody, V domains shown) VH: QLQLQESGPGLVKPSETLSLTCTVSGGSISSSSYYWGWIRQPPGKGLEWIGSIYYSGVTYYNPSLKNRVTISVDTSKNQFSLKLSSVTAADTAVYYCTREDSSNWRSRGQGTLVTVSS | 90.6
anti-CD22 heavy chain-only antibody Clone ID 335162 (antibody, V domains shown) VH: QLQLQESGPGLVKPSETLSLTCTVSGGSIISSSYYWGWIRQPPGKGLEWIGSIYYSGSAYYHPSLKSRVTISIDTSKNQFSLKLSSVTAADTAVYYCARDDSSNWRSRGQGTLVTVSS | 99.6

More lines, now with the values ahead:

Kd [nM] | Binder
2.66 | anti-CD22 heavy chain-only antibody Clone ID 335311 (antibody, V domains shown) VH: QLQLQESGPGLVKPSETLSLTCAVYGGSFSGYYWGWIRQPPGKGLEWIGHIYYSGATYYNPSLKNRVTISVDTSRNQFSLNLSSVTAADTAVYYCTREDSSSWRSRGQGTLVTVSS
33 | anti-CD22 heavy chain-only antibody Clone ID 335166 (antibody, V domains shown) VH: QLQLQESGPGLVKPSETLSLTCTVSGGSISSSSYYWGWIRQPPGKGLEWIGSIYYSGSTYYNPSLKNRVTISVDTSRNQFSLNLSSVTAADTAVYYCTRDDSSNWRSRGQGTLVTVSS
27.3 | anti-CD22 heavy chain-only antibody Clone ID 335236 (antibody, V domains shown) VH: QLQLQESGPGLVKPSETLSLTCTVSGGSISSSSYYWGWIRQPPGKGLEWIGSIYYSGSTYYNPSLKSRVTISVDTSKNQFSLKLSSVTAADTAVYYCTREDSSNWRSRGQGTLVTVSS
14.1 | anti-CD22 heavy chain-only antibody Clone ID 335150 (antibody, V domains shown) VH: QLQLQESGPGLVKPSETLSLTCTVSGDSISSGDYYWGWIRQSPEKGLEWIGHIYYSGVTYYNPSLKNRVTISVDTSKNQFSLKLSSVTAADTAVYYCKRDDSSNWRSRGQGTLVTVSS
30.5 | anti-CD22 heavy chain-only antibody Clone ID 335173 (antibody, V domains shown) VH: QLQLQESGPGLVKPSETLSLTCTVSGGSITSSSYYWGWIRQPPGKGLEWIGSIYYSGSTYYNPSLKSRVTISVDTSKNQFSLKLSSVTAADTAVYYCTRDDSSNWRSRGQGTLVTVSS
16.1 | anti-CD22 heavy chain-only antibody Clone ID 335159 (antibody, V domains shown) VH: QLQLQESGPGLVKPSETLSLTCTVSGGSISSSSYYWGWIRQPPGKGLEWIGHIYYSGVTYYNPSLKNRVTISVDTSKNQFSLKLSSVTAADTAAYYCTRDDSSNWRSRGQGTLVTVSS
19 | anti-CD22 heavy chain-only antibody Clone ID 335233 (antibody, V domains shown) VH: QLQLQESGPGLVKPSETLSLTCTVSGDSISSGDYYWGWIRQPPGKGLEWIGSIYYSGSTYYNPSLKSRVTISVDTSKNQFSLKLSSVTAADTAVYYCTREDSSNWRSRGQGTLVTVSS
23.4 | anti-CD22 heavy chain-only antibody Clone ID 335224 (antibody, V domains shown) VH: QLQLQESGPGLVKPSETLSLTCTVSGDSISSGDYYWGWIRQPPGKGLEWIGSIYYTGSTYYNPSLKSRVTISVDTSKNQFSLKLSSVTAADTAVYYCTREDSSNWRSRGQGTLVTVSS
25.5 | anti-CD22 heavy chain-only antibody Clone ID 335226 (antibody, V domains shown) VH: QLQLQESGPGLVKPSETLSLTCTVSGDSISSSSYYWGWIRQPPGKGLEWIGSIYYSGSTYYNPSLKSRVTISVDTSKNQFSLKLSSVTAADTAVYYCTREDSSNWRSRGQGTLVTVSS
23.6 | anti-CD22 heavy chain-only antibody Clone ID 335274 (antibody, V domains shown) VH: QLQLQESGPGLVKPSETLSLTCTVSGGSISSSSYYWGWIRQPPGKGLEWIGSIYYSGSTYYNPSLKSRVTISVDTSRNQFSLNLSSVTAADTAVYYCTREDSSSWRSRGQGTLVTVSS
17.6 | anti-CD22 heavy chain-only antibody Clone ID 335186 (antibody, V domains shown) VH: QLQLQESGPGLVKPSETLSLTCTVSGGSISSSSYYWGWIRQPPGKGLEWIGSIYYSGSTYYNPSLKSRVTISVDTSKNQFSLKLSSVTAADTAVYYCTRDDSSNWRSRGQGTLVTVSS
28.8 | anti-CD22 heavy chain-only antibody Clone ID 335297 (antibody, V domains shown) VH: QLQLQESGPGLVKPSETLSLTCTVSGGSISSSSYYWGWIRQPPGKGLEWIGHIYYSGATYYNPSLKNRVTISVDTSRNQFSLNLSSVTAADTAVYYCTREDSSSWRSRGQGTLVTVSS
36 | anti-CD22 heavy chain-only antibody Clone ID 335189 (antibody, V domains shown) VH: QLQLQESGPGLVKPSETLSLTCTVSGGSISSSSYYWGWIRQPPGKGLEWIGSVYYTGATYYNPSLKNRVTISVDTSKNQFSLKLSSVTAADTAVYYCTRDDSSNWRSRGQGTLVTVSS
23.5 | anti-CD22 heavy chain-only antibody Clone ID 335316 (antibody, V domains shown) VH: QLQLQESGPGLVKPSETLSLTCTVSGGSISSSSYYWGWIRQPPGKGLEWIGHIYYSGATYYNPSLKNRVTISVDTSKNQFSLKLSSVTAADTAVYYCTREDSSSWRSRGQGTLVTVSS
22.4 | anti-CD22 heavy chain-only antibody Clone ID 335333 (antibody, V domains shown) VH: QLQLQESGPGLVKPSETLSLTCTVSGGSISSSSYYWGWIRQPPGKGLEWIGSIYYSGSTYYNPSLKSRVTISVDTSKNQFSLKLSSVTAADTAVYYCAREDSSSWRSRGQGTLVTVSS
31.6 | anti-CD22 heavy chain-only antibody Clone ID 335295 (antibody, V domains shown) VH: QLQLQESGPGLVKPSETLSLTCTVSGGSISSSSYYWGWIRQPPGKGLEWIGSIYYSGATYYNPSLKNRVTISVDTSRNQFSLNLSSVTAADTAVYYCTREDSSSWRSRGQGTLVTVSS
